Assay results taken from the supplement of paper PMC11246515.
± gives the standard deviation of the averaged measurements.

Assay: total protein half-life in vivo (active degradation + dilution); higher = more stable protein
[1] = E. coli NCM3722 delta-clpP delta-lon delta-hslV, growth: N-lim chemostat, doubling time 6 h
[2] = E. coli NCM3722 delta-clpP, growth: N-lim chemostat, doubling time 6 h
[3] = E. coli NCM3722 delta-hslV, growth: N-lim chemostat, doubling time 6 h
[4] = E. coli NCM3722 delta-lon, growth: N-lim chemostat, doubling time 6 h
[5] = E. coli NCM3722 delta-smpB, growth: N-lim chemostat, doubling time 6 h
[6] = wild type E. coli NCM3722, growth: C-lim chemostat, doubling time 3 h
[7] = wild type E. coli NCM3722, growth: C-lim chemostat, doubling time 6 h
[8] = wild type E. coli NCM3722, growth: C-lim chemostat, doubling time 12 h
[9] = wild type E. coli NCM3722, growth: N-lim chemostat, doubling time 6 h
[10] = wild type E. coli NCM3722, growth: N-lim chemostat, doubling time 12 h
[11] = wild type E. coli NCM3722, growth: P-lim chemostat, doubling time 6 h
[12] = wild type E. coli NCM3722, growth: P-lim chemostat, doubling time 12 h

Sequence | total protein half-life in vivo [1] [h] | total protein half-life in vivo [2] [h] | total protein half-life in vivo [3] [h] | total protein half-life in vivo [4] [h] | total protein half-life in vivo [5] [h] | total protein half-life in vivo [6] [h] | total protein half-life in vivo [7] [h] | total protein half-life in vivo [8] [h] | total protein half-life in vivo [9] [h] | total protein half-life in vivo [10] [h] | total protein half-life in vivo [11] [h] | total protein half-life in vivo [12] [h]
MQVDLLGSAQSAHALHLFHQHSPLVHCMTNDVVQTFTANTLLALGASPAMVIETEEASQFAAIASALLINVGTLTQPRAQAMRAAVEQAKSSQTPWTLDPVAVGALDYRRHFCHELLSFKPAAIRGNASEIMALAGIANGGRGVDTTDAAANAIPAAQTLARETGAIVVVTGEMDYVTDGHRIIGIHGGDPLMTKVVGTGCALSAVVAACCALPGDTLENVASACHWMKQAGERAVARSEGPGSFVPHFLDALWQLTQEVQA | 4.08 ± 0.34 | 3.41 ± 0.17 | 3.27 ± 0.13 | 3.94 | 3.42 ± 0.044 | 3.01 ± 0.68 | 4.89 ± 1.2 | 8.48 ± 1 | 3.4 ± 0.41 | 5.17 ± 0.24 | 5.64 ± 0.14 | 10.3 ± 0.67
MPACELRPATQYDTDAVYALICELKQAEFDHHAFRVGFNANLRDPNMRYHLALLDGEVVGMIGLHLQFHLHHVNWIGEIQELVVMPQARGLNVGSKLLAWAEEEARQAGAEMTELSTNVKRHDAHRFYLREGYEQSHFRFTKAL | 4.67 ± 0.61 | 2.53 ± 0.34 | 1.8 ± 0.17 | 2.76 ± 0.12 | 1.58 ± 0.037 | 1.61 ± 0.22 | 2.49 ± 0.34 | 2.45 | 1.93 ± 0.3 | 2.54 ± 0.055 | 3.65 ± 0.24 | 6.57 ± 0.13
MSNNEFHQRRLSATPRGVGVMCNFFAQSAENATLKDVEGNEYIDFAAGIAVLNTGHRHPDLVAAVEQQLQQFTHTAYQIVPYESYVTLAEKINALAPVSGQAKTAFFTTGAEAVENAVKIARAHTGRPGVIAFSGGFHGRTYMTMALTGKVAPYKIGFGPFPGSVYHVPYPSDLHGISTQDSLDAIERLFKSDIEAKQVAAIIFEPVQGEGGFNVAPKELVAAIRRLCDEHGIVMIADEVQSGFARTGKLFAMDHYADKPDLMTMAKSLAGGMPLSGVVGNANIMDAPAPGGLGGTYAGNPLAVAAAHAVLNIIDKESLCERANQLGQRLKNTLIDAKESVPAIAAVRGLGSMIAVEFNDPQTGEPSAAIAQKIQQRALAQGLLLLTCGAYGNVIRFLYPLTIPDAQFDAAMKILQDALSD | 3.77 ± 0.53 |  | 1 |  | 0.902 ± 0.068 | 2.883 ± 0.027 | 2.81 ± 0.47 | 4.33 ± 0.44 | 1.25 | 1.67 | 3.46 ± 0.35 | 5.88 ± 0.5
MATNAKPVYKRILLKLSGEALQGTEGFGIDASILDRMAQEIKELVELGIQVGVVIGGGNLFRGAGLAKAGMNRVVGDHMGMLATVMNGLAMRDALHRAYVNARLMSAIPLNGVCDSYSWAEAISLLRNNRVVILSAGTGNPFFTTDSAACLRGIEIEADVVLKATKVDGVFTADPAKDPTATMYEQLTYSEVLEKELKVMDLAAFTLARDHKLPIRVFNMNKPGALRRVVMGEKEGTLITE [P0A7E9] | 4.84 ± 0.3 | 5.18 ± 0.45 | 4.79 ± 0.38 | 5.16 ± 0.34 | 4.49 ± 0.16 | 3.24 ± 0.27 | 7 ± 1.2 | 10.4 ± 1.8 | 4.93 ± 0.33 | 8.29 ± 1 | 5.84 ± 0.27 | 14.4 ± 0.48
MKVLTVFGTRPEAIKMAPLVHALAKDPFFEAKVCVTAQHREMLDQVLKLFSIVPDYDLNIMQPGQGLTEITCRILEGLKPILAEFKPDVVLVHGDTTTTLATSLAAFYQRIPVGHVEAGLRTGDLYSPWPEEANRTLTGHLAMYHFSPTETSRQNLLRENVADSRIFITGNTVIDALLWVRDQVMSSDKLRSELAANYPFIDPDKKMILVTGHRRESFGRGFEEICHALADIATTHQDIQIVYPVHLNPNVREPVNRILGHVKNVILIDPQEYLPFVWLMNHAWLILTDSGGIQEEAPSLGKPVLVMRDTTERPEAVTAGTVRLVGTDKQRIVEEVTRLLKDENEYQAMSRAHNPYGDGQACSRILEALKNNRISL | 4.18 ± 0.042 | 4.52 ± 0.26 | 4.56 ± 0.14 | 4.96 ± 0.82 | 3.55 ± 0.33 | 3.23 ± 0.27 | 5.8 ± 0.64 | 10.5 ± 2.5 | 4.16 ± 0.4 | 8.18 ± 0.94 | 6.17 ± 0.78 | 10.1 ± 1.9
MNTTTPMGMLQQPRPFFMIFFVELWERFGYYGVQGVLAVFFVKQLGFSQEQAFVTFGAFAALVYGLISIGGYVGDHLLGTKRTIVLGALVLAIGYFMTGMSLLKPDLIFIALGTIAVGNGLFKANPASLLSKCYPPKDPRLDGAFTLFYMSINIGSLIALSLAPVIADRFGYSVTYNLCGAGLIIALLVYIACRGMVKDIGSEPDFRPMSFSKLLYVLLGSVVMIFVCAWLMHNVEVANLVLIVLSIVVTIIFFRQAFKLDKTGRNKMFVAFVLMLEAVVFYILYAQMPTSLNFFAINNVHHEILGFSINPVSFQALNPFWVVLASPILAGIYTHLGNKGKDLSMPMKFTLGMFMCSLGFLTAAAAGMWFADAQGLTSPWFIVLVYLFQSLGELFISALGLAMIAALVPQHLMGFILGMWFLTQAAAFLLGGYVATFTAVPDNITDPLETLPVYTNVFGKIGLVTLGVAVVMLLMVPWLKRMIATPESH | 6.66 ± 0.32 | 6.8 ± 0.1 |  | 5.78 ± 0.79 | > 8 | > 4 |  |  |  | 6.12 | 6.47 | 11.1 ± 1.4
MSKPIVMERGVKYRDADKMALIPVKNVATEREALLRKPEWMKIKLPADSTRIQGIKAAMRKNGLHSVCEEASCPNLAECFNHGTATFMILGAICTRRCPFCDVAHGRPVAPDANEPVKLAQTIADMALRYVVITSVDRDDLRDGGAQHFADCITAIREKSPQIKIETLVPDFRGRMDRALDILTATPPDVFNHNLENVPRIYRQVRPGADYNWSLKLLERFKEAHPEIPTKSGLMVGLGETNEEIIEVMRDLRRHGVTMLTLGQYLQPSRHHLPVQRYVSPDEFDEMKAEALAMGFTHAACGPFVRSSYHADLQAKGMEVK | 5.22 ± 1 | 1.56 ± 0.071 | 1.64 ± 0.38 | 1.84 ± 0.034 | 1.27 ± 0.14 | 1.23 ± 0.056 | 1.93 ± 0.095 | 2.47 ± 0.21 | 1.67 ± 0.095 | 2.4 ± 0.28 | 1.74 ± 0.22 | 3.3 ± 0.49
